Measurements from publication PMC6811359.

Columns and labels:
[1] = biological target: PAL, light-oxygen-voltage (LOV) receptor from Nakamurella multipartita (Nakamurella multipartita); assay: SEC
[2] = biological target: PAL, light-oxygen-voltage (LOV) receptor from Nakamurella multipartita (Nakamurella multipartita); assay: SEC-MALS
[3] = biological target: isolated LOV domain of PAL (Nakamurella multipartita); assay: SEC
[4] = biological target: isolated LOV domain of PAL (Nakamurella multipartita); assay: SEC-MALS

stoichiometry N [1] | stoichiometry N [2] | stoichiometry N [3] | stoichiometry N [4] | Substance
2 | 2 |  |  | PAL, light-oxygen-voltage (LOV) receptor from Nakamurella multipartita (natural protein)
 |  | 2 | 2 | isolated LOV domain of PAL (domain or fragment)
